Read-outs that look alike come from different tables or passages of the source.
Key:
[1] = target: T1, CFIm25 delN21 (crystal);CFIm68 N13-235 (crystal) (human;human, UniProt O43809;Q16630 21-227;13-235, |); experiment: X-ray crystallography
[2] = target: CFIm25;CFIm68 RRM (human;human, UniProt O43809;Q16630 1-227;13-235, |); experiment: EMSA
[3] = target: CFIm25 (human, UniProt O43809 1-227); experiment: EMSA
[4] = target: T1, CFIm25 delN21 (crystal);CFIm68 N13-235 …; experiment: X-ray crystallography; remark: listed apart in the source

T1 sequence (O43809 21-227, chain 1 of 2): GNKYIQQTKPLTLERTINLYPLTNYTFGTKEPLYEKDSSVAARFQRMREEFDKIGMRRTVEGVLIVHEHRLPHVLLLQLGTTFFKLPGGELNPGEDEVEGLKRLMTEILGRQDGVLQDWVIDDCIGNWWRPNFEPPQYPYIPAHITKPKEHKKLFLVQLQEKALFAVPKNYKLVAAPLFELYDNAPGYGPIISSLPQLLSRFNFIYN
T1 sequence (Q16630 13-235, chain 2 of 2): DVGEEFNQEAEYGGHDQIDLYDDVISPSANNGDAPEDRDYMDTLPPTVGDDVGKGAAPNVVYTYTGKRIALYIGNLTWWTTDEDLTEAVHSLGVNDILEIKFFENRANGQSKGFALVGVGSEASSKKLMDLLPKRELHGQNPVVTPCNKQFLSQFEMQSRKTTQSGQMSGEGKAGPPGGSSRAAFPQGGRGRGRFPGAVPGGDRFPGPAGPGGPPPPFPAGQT
Sequence of CFIm25;CFIm68 RRM (O43809 whole entry, chain 1 of 2): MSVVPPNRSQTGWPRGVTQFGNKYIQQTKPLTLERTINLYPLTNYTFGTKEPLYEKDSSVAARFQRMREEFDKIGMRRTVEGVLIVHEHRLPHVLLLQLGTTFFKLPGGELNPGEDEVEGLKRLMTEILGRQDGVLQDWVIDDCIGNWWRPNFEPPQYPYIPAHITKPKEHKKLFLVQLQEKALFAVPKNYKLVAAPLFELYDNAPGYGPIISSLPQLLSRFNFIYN
Sequence of CFIm25;CFIm68 RRM (Q16630 13-235, chain 2 of 2): as the sequence (Q16630 13-235, chain 2 of 2) above
Sequence of CFIm25 (O43809 whole entry): as the sequence (O43809 whole entry, chain 1 of 2) above

UUGUAU (ssRNA) [6-mer RNA]
binding result [1]: binds

GGGUGUAAAACAGAUGAUGUAU (ssRNA) [PAPOLA upstream element as printed]
Kd [2]: 222 nM | Kd [3]: 645 nM

UAUUUUGUA (ssRNA) [9-mer RNA]
binding result [4]: binds

— PMC3056899
